Measurements from PMC11481066.

Molecular target: SARS-CoV-2 spike protein receptor binding domain, Delta variant subvariant Δ1 (B.1.617.2) (UniProt P0DTC2)
Assay: BLI
Details: parent: 168.4

ab8 nanobody, wild type E127W
Kd: 590 pM
